Experimental data published in patent publication US20240059769A1 (BIOLOJIC DESIGN, published 2024).

Target: recombinant human IL-13 (human, UniProt P35225 35-146)
Test: cell-based or functional assay

recombinant human IL-13, sequence (P35225 35-146 limits assumed): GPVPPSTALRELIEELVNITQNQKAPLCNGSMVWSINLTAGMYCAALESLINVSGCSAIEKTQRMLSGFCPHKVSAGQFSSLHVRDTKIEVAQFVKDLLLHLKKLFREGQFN

Row | Binder | HEK-IL-13 [nM] (IC50, STAT6 reporter)
1 | BDG38.084 (antibody, V domains shown) VH: QMQLVESGGGVVQPGRSLRLSCAASGFAFRTYGMHWVRQAPGKGLEWVAVIWDDGSNTHYADSVKGRFTITRDNSKNTLNLQMNSLRAEDTAVYYCVRAPQWYLTAEAFDLWGQGTMVTVSS VL: SYVLTQPPSVSVAPGETATITCGGNLIGAYLVHWYQQKPGQAPVLVVYDDVDRPDRIPERFSGSNSGNTATLTISRVEAGDEADYYCQVWDHSTNTMVFGGGTKLTVL | 0.0419
2 | BDG38.121 (antibody, V domains shown) VH: QMQLVESGGGVVQPGRSLRLSCAASGFEFRTYGMHWVRQAPGKGLEWVGVIWYDGSNTHYADSVKGRFTITRDNSKNTLNLQMNSLRAEDTAVYYCVRAPQWYLTAEAFDLWGQGTMVTVSS VL: SYILTQPPSVSVAPGETATITCGGNLIGARLVHWYQQKPGQAPVLVIYDDSDRPSRIPERFSGSNIGNTATLTISRVEAGDEADYYCQVWDYSSNTYVFGGGTKLTVL | 0.0562
3 | BDG38.088 (antibody, V domains shown) VH: QMQLVESGGGVVQPGRSLTLSCAASGFEFRTYGMHWVRQAPGKGLEWVGVIWYDGSNTHYADSVKGRFTITRDNSKNTLNLQMNSLRVEDTAVYYCVRAPQWYLTAEAFDLWGQGTMVTVSS VL: SYVLTQPPSVSVAPGETATITCGGNLIGARLVHWYQQKPGQAPVLVIYDDSDRPSRIPERFSGSNIGNTATLTISDVEAGDEADYYCQVWDYSSNTYVFGGGTKLTVL | 0.0486
4 | BDG38.114 (antibody, V domains shown) VH: QMQLVESGGGVVQPGRSLTLSCAASGFEFRTYGMHWVRQAPGKGLEWVGVIWYDGSNTHYADSVKGRFTITRDNSKNTLNLQMNSLRVEDTAVYYCVRAPQWYLTAEAFDLWGQGTMVTVSS VL: SYILTQPPSVSVAPGQTATITCGGNLIGARLVHWYQQKPGQAPVLVIYDDSDRPSRIPERFSGSNIGNTATLTIEDVEEGDEADYYCQVWDYSANSYVFGGGTKLTVL | 0.0989
5 | BDG38.095 (antibody, V domains shown) VH: QMQLVESGGGVVQPGRSLTLSCAASGFEFRTYGMHWVRQAPGKGLEWVGVIWYDGSATHYADSVKGRFTITRDNSKNTLNLQMNSLRAEDTAVYYCVRAPQWYLTAEAFDLWGQGTMVTVSS VL: SYVLTQPPSVSVAPGQTATITCGGALIGSRLVHWYQQKPGQAPVLVVYDDSDRPSRIPERFSGSNIGNTATLTISRVEEGDEADYYCQVWDYYSDSYVFGGGTKLTVL | 0.0822
6 | BDG38.085 (antibody, V domains shown) VH: QMQLVESGGGVVQPGRSLTLSCAASGFEFRTYGMHWVRQAPGKGLEWVGVIWYDGSNTHYADSVKGRFTITRDNSKNTLNLQMNSLRVEDTAVYYCVRAPQWYLTAEAFDLWGQGTMVTVSS VL: SYVLTQPPSVSVAPGETATITCGGNLIGARLVHWYQQKPGQAPVLVIYDDSDRPSRIPERFSGSNIGNTATLTIERVEAGDEADYYCQVWDYSSNSYVFGGGTKLTVL | 0.0236
7 | BDG38.103 (antibody, V domains shown) VH: QMQLVESGGGVVQPGRSLRLSCAASGFEFRTYGMHWVRQAPGKGLEWVGVIWYDGSNTHYADSVKGRFTITRDNSKNTLNLQMNSLRVEDTAVYYCVRAPQWYLTAEAFDLWGQGTMVTVSS VL: SYVLTQPPSVSVAPGQTATITCGGNLIGARLVHWYQQKPGQAPVLVVYDDSDRPSRIPERFSGSNIGNTATLTISDVEEGDEADYYCQVWDYYSNSYVFGGGTKLTVL | 0.084
8 | BDG38.111 (antibody, V domains shown) VH: QMQLVESGGGVVQPGRSLTLSCAASGFEFRTYGMHWVRQAPGKGLEWVGVIWDDGSATHYADSVKGRFTITRDNSKNTLNLQMNSLRVEDTAVYYCVRAPQWYLTAEAFDLWGQGTMVTVSS VL: SYVLTQPPSVSVAPGETATITCGGALIGARLVHWYQQKPGQAPVLVVYDDSDRPSRIPERFSGSNIGNTATLTISRVEAGDEADYYCQVWDYYANSYVFGGGTKLTVL | 0.0545
9 | BDG38.097 (antibody, V domains shown) VH: QMQLVESGGGVVQPGRSLRLSCAASGFEFRTYGMHWVRQAPGKGLEWLGVIWYDGSATHYADSVKGRFTITRDNSKNTLNLQMNSLRAEDTAVYYCVRAPQWYLTAEAFDLWGQGTMVTVSS VL: SYILTQPPSVSVAPGETATITCGGNLIGARLVHWYQQKPGQAPVLVIYDDSDRPSRIPERFSGSNIGNTATLTIERVEEGDEADYYCQVWDYYSDHYVFGGGTKLTVL | 0.0464
10 | BDG38.093 (antibody, V domains shown) VH: QMQLVESGGGVVQPGRSLTLSCAASGFEFRTYGMHWVRQAPGKGLEWVGVIWYDGSNTHYADSVKGRFTITRDNSKNTLNLQMNSLRAEDTAVYYCVRAPQWYLTAEAFDLWGQGTMVTVSS VL: SYVLTQPPSVSVAPGQTARITCGGNLIGARLVHWYQQKPGQAPVLVIYDDSDRPSRIPERFSGSNIGNTATLTIERVEEGDEADYYCQVWDYSADSYVFGGGTKLTVL | 0.0402
11 | BDG38.102 (antibody, V domains shown) VH: QMQLVESGGGVVQPGRSLRLSCAASGFEFRTYGMHWVRQAPGKGLEWVGVIWYDGSNTHYADSVKGRFTITRDNSKNTLNLQMNSLRAEDTAVYYCVRAPQWYLTAEAFDLWGQGTMVTVSS VL: SYVLTQPPSVSVAPGETATITCGGNLIGARLVHWYQQKPGQAPVLVVYDDSDRPSRIPERFSGSNIGNTATLTIEDVEAGDEADYYCQVWDYSSNTYVFGGGTKLTVL | 0.0421
12 | BDG38.099 (antibody, V domains shown) VH: QMQLVESGGGVVQPGRSLRLSCAASGFEFRTYGMHWVRQAPGKGLEWVGVIWYDGSNTHYADSVKGRFTITRDNSKNTLNLQMNSLRAEDTAVYYCVRAPQWYLTAEAFDLWGQGTMVTVSS VL: SYILTQPPSVSVAPGETARITCGGNLIGARLVHWYQQKPGQAPVLVIYDDSDRPSRIPERFSGSNIGNTATLTIEDVEEGDEADYYCQVWDYSSDSYVFGGGTKLTVL | 0.0601
13 | BDG38.105 (antibody, V domains shown) VH: QMQLVESGGGVVQPGRSLTLSCAASGFEFRTYGMHWVRQAPGKGLEWVGVIWYDGSNTHYADSVKGRFTITRDNSKNTLNLQMNSLRVEDTAVYYCVRAPQWYLTAEAFDLWGQGTMVTVSS VL: SYVLTQPPSVSVAPGETATITCGGNLIGARLVHWYQQKPGQAPVLVIYDDSDRPSRIPERFSGSNIGNTATLTIERVEAGDEADYYCQVWDYYSNSYVFGGGTKLTVL | 0.134

The remaining lines, values ahead:

Row | HEK-IL-13 [nM] (IC50, STAT6 reporter) | Binder
14 | 0.0801 | BDG38.100 (antibody, V domains shown) VH: QMQLVESGGGVVQPGRSLRLSCAASGFEFRTYGMHWVRQAPGKGLEWVGVIWYDGSNTHYADSVKGRFTITRDNSKNTLNLQMNSLRVEDTAVYYCVRAPQWYLTAEAFDLWGQGTMVTVSS VL: SYVLTQPPSVSVAPGETARITCGGNLIGARLVHWYQQKPGQAPVLVIYDDSDRPSRIPERFSGSNIGNTATLTIERVEEGDEADYYCQVWDYYSNSYVFGGGTKLTVL
15 | 0.063 | BDG38.109 (antibody, V domains shown) VH: QMQLVESGGGVVQPGRSLRLSCAASGFEFRTYGMHWVRQAPGKGLEWVGVIWYDGSNTHYADSVKGRFTITRDNSKNTLNLQMNSLRAEDTAVYYCVRAPQWYLTAEAFDLWGQGTMVTVSS VL: SYILTQPPSVSVAPGQTATITCGGNLIGARLVHWYQQKPGQAPVLVIYDDSDRPSRIPERFSGSNIGNTATLTIERVEEGDEADYYCQVWDYSSNSYVFGGGTKLTVL
16 | 0.0662 | BDG38.119 (antibody, V domains shown) VH: QMQLVESGGGVVQPGRSLRLSCAASGFEFRTYGMHWVRQAPGKGLEWVGVIWYDGSNTHYADSVKGRFTITRDNSKNTLNLQMNSLRAEDTAVYYCVRAPQWYLTAEAFDLWGQGTMVTVSS VL: SYILTQPPSVSVAPGETATITCGGNLIGARLVHWYQQKPGQAPVLVIYDDSDRPSRIPERFSGSNIGNTATLTISRVEEGDEADYYCQVWDYSSNTYVFGGGTKLTVL
17 | 0.0381 | BDG38.104 (antibody, V domains shown) VH: QMQLVESGGGVVQPGRSLTLSCAASGFEFRTYGMHWVRQAPGKGLEWVGVIWYDGSATHYADSVKGRFTITRDNSKNTLNLQMNSLRAEDTAVYYCVRAPQWYLTAEAFDLWGQGTMVTVSS VL: SYILTQPPSVSVAPGETATITCGGNLIGARLVHWYQQKPGQAPVLVIYDDSDRPSRIPERFSGSNIGNTATLTIEDVEEGDEADYYCQVWDYYSDSYVFGGGTKLTVL
18 | 0.0403 | BDG38.101 (antibody, V domains shown) VH: QMQLVESGGGVVQPGRSLRLSCAASGFEFRTYGMHWVRQAPGKGLEWVGVIWYDGSATHYADSVKGRFTITRDNSKNTLNLQMNSLRVEDTAVYYCVRAPQWYLTAEAFDLWGQGTMVTVSS VL: SYILTQPPSVSVAPGETATITCGGNLIGARLVHWYQQKPGQAPVLVIYDDSDRPSRIPERFSGSNIGNTATLTISRVEEGDEADYYCQVWDYSSNTYVFGGGTKLTVL
19 | 0.0284 | BDG38.113 (antibody, V domains shown) VH: QMQLVESGGGVVQPGRSLTLSCAASGFEFRTYGMHWVRQAPGKGLEWVGVIWYDGSNTHYADSVKGRFTITRDNSKNTLNLQMNSLRAEDTAVYYCVRAPQWYLTAEAFDLWGQGTMVTVSS VL: SYVLTQPPSVSVAPGETATITCGGNLIGARLVHWYQQKPGQAPVLVIYDDSDRPSRIPERFSGSNIGNTATLTIEDVEEGDEADYYCQVWDYSSDSYVFGGGTKLTVL
20 | 0.075 | BDG38.089 (antibody, V domains shown) VH: QMQLVESGGGVVQPGRSLRLSCAASGFEFRTYGMHWVRQAPGKGLEWVGVIWYDGSATHYADSVKGRFTITRDNSKNTLNLQMNSLRVEDTAVYYCVRAPQWYLTAEAFDLWGQGTMVTVSS VL: SYILTQPPSVSVAPGETATITCGGNLIGARLVHWYQQKPGQAPVLVIYDDSDRPSRIPERFSGSNIGNTATLTISRVEEGDEADYYCQVWDHSSNHYVFGGGTKLTVL
21 | 0.0659 | BDG38.108 (antibody, V domains shown) VH: QMQLVESGGGVVQPGRSLRLSCAASGFEFRTYGMHWVRQAPGKGLEWVGVIWYDGSNTHYADSVKGRFTITRDNSKNTLNLQMNSLRAEDTAVYYCVRAPQWYLTAEAFDLWGQGTMVTVSS VL: SYILTQPPSVSVAPGETATITCGGNLIGARLVHWYQQKPGQAPVLVIYDDSDRPSRIPERFSGSNIGNTATLTISDVEEGDEADYYCQVWDYYSNSYVFGGGTKLTVL
